Two molecules from US20130040853A1, “Context Specific Genetic Screen Platform to Aid in Gene Discovery and Target Validation” (Dana-Farber Cancer Institute Inc., priority 2010, published 2013) can be followed below.

For data set [1], the system named is HMEL-BRAF^V600E melanocytes. As to the kind of experiment: In vivo functional genetic screen and secondary validation: kinase-transduced HMEL cells implanted in nude mice. Also noted: species or system human. Conditions: WT or mutant kinase expressed individually. The text has this:
A ‘cancer-kinase’ library was constructed containing sequence-verified ORFs in a lentiviral vector for 110 of the 120 kinases reported to sustain somatic driver mutations in diverse human cancers. This library was pooled and introduced into a human HMEL-BRAF^V600E melanocyte model system engineered with BRAF^V600E and TERT as well as p53DD and CDK4-R24C to inactivate the […] pathways, respectively. The HMEL-BRAF^V600E melanocyte profile, while representing the most common clinically-definable genetic profile in human melanoma, is insufficient to drive efficient melanoma formation following orthotopic transplantation in the skin (penetrance of 10% and latency of 26 weeks). In contrast, 40% of HMEL-BRAF^V600E melanocytes transduced with the cancer kinase pools developed tumors with an average latency of 13 weeks (range 10-18 weeks).
In vivo functional genetic screens: Lentivirus were prepared by co-transfecting 293T cells with individual vector backbones and standard virus packaging systems for subsequent collection of viral supernatants. Viral supernatants were then pooled randomly to generate 8 pools of high-titer lentiviral stocks. HMEL cells were transduced with either GFP control lentivirus or each representative lentiviral pool in the presence of 8 ug/ml polybrene (Company). Infected cells were expanded, mixed 1:1 with Matrigel (BD Bioscience) and then subcutaneously implanted in female nude animals (Taconic) at 1×10^6 cells per site on both flanks. Primary INK4A/ARF−/−, PTEN−/− murine astrocytes were transduced with either GFP control lentivirus or each representative lentiviral pool in the presence of 8 ug/ml polybrene (Company). Infected cells were expanded implanted into the brain parenchyma of female SCID mice (Charles River). Briefly, SCID mice were anesthetized and placed into a stereotactic apparatus equipped with a Z axis (Stoelting). A small hole was bored in the skull 0.5 mm anterior and 3.0 mm lateral to the bregma using a dental drill. Twenty thousand cells in Hank's Buffered Salt Solution were injected into the right caudate nucleus 2 mm below the surface of the brain using a 10-ul Hamilton syringe with an unbeveled 30 gauge needle. The scalp was closed using a 9-mm Autoclip Applier. Animals were followed daily for the development of subQ tumors or signs of neurological deficits. Animals were sacrifice, tumors were harvested, genomic DNA was prepared and kinases expressed in each tumor identified using PCR sequencing using plasmid specific CMV and V5 primers. Expression of each kinase was further validated by western blot analysis. Kinases expressed in each tumor were then enlisted into secondary validation screens in which stable HMEL or mouse astrocyte lines were generated expressing each kinase individually. Cells were again expanded and then implanted in female nude or SCID animals. All mice were housed and treated in accordance with protocols approved by the institutional care and use committees for animal research at the Dana-Farber Cancer Institute.

The test system of a further data set is cJUN phosphorylation. Kind of data set: JNK Kinase Assay (WT and mutant kinases immunoprecipitated from HMEL cells). In kind it is biochemical, human. To be noted: as reported by level of cJUN phosphorylation; for MAP2K4/7 first incubated with inactive JNK2.

B1: MAP2K4 p.R154W: MAP2K4 somatic driver mutant, observed in colorectal adenocarcinoma (protein, UniProt P45985 2-399, looked up, variant R154W)
Dual specificity …: AAPSPSGGGGSGGGSGSGTPGPVGSPAPGHPAVSSMQGKRKALKLNFANPPFKSTARFTLNPNPTGVQNPHIERLRTHSIESSGKLKISPEQHWDFTAEDLKDLGEIGRGAYGSVNKMVHKPSGQIMAVKRIRSTVDEKEQKQLLMDLDVVMWSSDCPYIVQFYGALFREGDCWICMELMSTSFDKFYKYVYSVLDDVIPEEILGKITLATVKALNHLKENLKIIHRDIKPSNILLDRSGNIKLCDFGISGQLVDSIAKTRDAGCRPYMAPERIDPSASRQGYDVRSDVWSLGITLYELATGRFPYPKWNSVFDQLTQVVKGDPPQLSNSEEREFSPSFINFVNLCLTKDESKRPKYKELLKHPFILMYEERAVEVACYVCKILDQMPATPSSPMYVD
Turning to B1, in data set [1], the Tumorigenicity in vivo result is given as “YES”. For the same molecule, in the data set with cJUN phosphorylation, the “Kinase Activity” value was determined as 3X.

B2: JNK1 P.G171S: JNK1 somatic mutant, observed in renal clear cell carcinoma (protein, UniProt P45983 1-427, looked up, variant G171S)
Mitogen-activated protein …: MSRSKRDNNFYSVEIGDSTFTVLKRYQNLKPIGSGAQGIVCAAYDAILERNVAIKKLSRPFQNQTHAKRAYRELVLMKCVNHKNIIGLLNVFTPQKSLEEFQDVYIVMELMDANLCQVIQMELDHERMSYLLYQMLCGIKHLHSAGIIHRDLKPSNIVVKSDCTLKILDFSLARTAGTSFMMTPYVVTRYYRAPEVILGMGYKENVDLWSVGCIMGEMVCHKILFPGRDYIDQWNKVIEQLGTPCPEFMKKLQPTVRTYVENRPKYAGYSFEKLFPDVLFPADSEHNKLKASQARDLLSKMLVIDASKRISVDEALQHPYINVWYDPSEAEAPPPKIPDKQLDEREHTIEEWKELIYKEVMDLEERTKNGVIRGQPSPLGAAVINGSQHPSSSSSVNDVSSMSTDPTLASDTDSSLEAAAGPLGCCR
As for B2, the Tumorigenicity in vivo entry in data set [1] is “YES”. In the data set on cJUN phosphorylation, the “Kinase Activity” value stood at 1X.
